Measured values reported in the supplement of paper PMC10065799, “High-throughput profiling of sequence recognition by tyrosine kinases and SH2 domains using bacterial peptide display” (eLife, 2023).

Assays:
AncSZ = experiment: phosphorylation enrichment, bacterial display (enrichment ratio); higher = better substrate or ligand; peptides without Tyr show the background
EPHB1 = EPHB1 (UniProt P54762); experiment: as above
EPHB2 = EPHB2 (UniProt P29323); experiment: as above
FGFR1 = FGFR1 (UniProt P11362); experiment: as above
FGFR3 = FGFR3 (UniProt P22607); experiment: as above
Fer (mouse) = experiment: as above
Fes = Fes (UniProt P07332); experiment: as above
Fyn = Fyn (UniProt P06241); experiment: as above
Hck = Hck (UniProt P08631); experiment: as above
Jak2 = Jak2 (UniProt O60674); experiment: as above
MERTK = MERTK (UniProt Q12866); experiment: as above
c-Abl (mouse) = experiment: as above
c-Src = experiment: as above
Grb2 SH2 = Grb2 SH2 (UniProt P62993); experiment: SH2 binding enrichment of the phosphorylated peptide, bacterial display (enrichment ratio); higher = better substrate or ligand; peptides without Tyr show the background
SHP2-C SH2 = experiment: as above
c-Src SH2 = experiment: as above
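Throughout, for SH2 binding enrichment of the phosphorylated peptide, bacterial display: peptide library displayed on the E. coli surface as eCPX fusions, selected cells deep-sequenced, score is each peptide's frequency after selection divided by its frequency in the input.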
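Throughout, for phosphorylation enrichment, bacterial display: 11-residue human phosphosite peptides and single-mutation variants displayed on the E. coli surface, counted by deep sequencing, each peptide's frequency after selection divided by its frequency in the unselected input library; frequency after pTyr selection over input frequency; kinase dosed for 20-30% of maximal phosphorylation in three min.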

Chain of MERTK (Q12866 whole entry, looked up): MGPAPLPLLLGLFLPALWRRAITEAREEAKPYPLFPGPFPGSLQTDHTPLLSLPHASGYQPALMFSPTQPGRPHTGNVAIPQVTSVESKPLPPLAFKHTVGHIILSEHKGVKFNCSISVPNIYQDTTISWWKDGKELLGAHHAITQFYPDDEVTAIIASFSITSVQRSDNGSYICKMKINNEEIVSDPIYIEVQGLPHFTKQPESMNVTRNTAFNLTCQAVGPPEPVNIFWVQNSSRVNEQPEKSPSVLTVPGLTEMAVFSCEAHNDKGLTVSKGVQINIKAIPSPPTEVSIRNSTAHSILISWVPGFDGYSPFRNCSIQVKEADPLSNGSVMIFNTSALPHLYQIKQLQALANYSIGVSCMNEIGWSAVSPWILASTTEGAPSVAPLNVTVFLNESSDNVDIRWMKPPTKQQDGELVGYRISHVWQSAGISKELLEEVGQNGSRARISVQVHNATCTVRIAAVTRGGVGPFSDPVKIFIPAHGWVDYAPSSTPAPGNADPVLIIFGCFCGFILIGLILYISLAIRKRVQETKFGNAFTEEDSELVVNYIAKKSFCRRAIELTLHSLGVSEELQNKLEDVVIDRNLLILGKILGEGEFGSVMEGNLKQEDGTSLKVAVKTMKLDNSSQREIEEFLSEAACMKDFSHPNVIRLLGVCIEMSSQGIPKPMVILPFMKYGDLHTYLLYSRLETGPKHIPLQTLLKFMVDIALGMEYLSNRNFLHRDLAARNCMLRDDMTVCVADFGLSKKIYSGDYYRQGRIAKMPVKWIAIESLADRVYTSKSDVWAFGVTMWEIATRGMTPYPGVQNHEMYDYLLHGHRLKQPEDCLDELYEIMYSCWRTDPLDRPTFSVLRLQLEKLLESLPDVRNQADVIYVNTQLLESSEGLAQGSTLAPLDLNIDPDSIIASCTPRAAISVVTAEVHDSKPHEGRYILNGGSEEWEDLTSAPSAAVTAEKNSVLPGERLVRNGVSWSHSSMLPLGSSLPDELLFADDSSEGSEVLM
Chain of FGFR3 (P22607 whole entry, looked up): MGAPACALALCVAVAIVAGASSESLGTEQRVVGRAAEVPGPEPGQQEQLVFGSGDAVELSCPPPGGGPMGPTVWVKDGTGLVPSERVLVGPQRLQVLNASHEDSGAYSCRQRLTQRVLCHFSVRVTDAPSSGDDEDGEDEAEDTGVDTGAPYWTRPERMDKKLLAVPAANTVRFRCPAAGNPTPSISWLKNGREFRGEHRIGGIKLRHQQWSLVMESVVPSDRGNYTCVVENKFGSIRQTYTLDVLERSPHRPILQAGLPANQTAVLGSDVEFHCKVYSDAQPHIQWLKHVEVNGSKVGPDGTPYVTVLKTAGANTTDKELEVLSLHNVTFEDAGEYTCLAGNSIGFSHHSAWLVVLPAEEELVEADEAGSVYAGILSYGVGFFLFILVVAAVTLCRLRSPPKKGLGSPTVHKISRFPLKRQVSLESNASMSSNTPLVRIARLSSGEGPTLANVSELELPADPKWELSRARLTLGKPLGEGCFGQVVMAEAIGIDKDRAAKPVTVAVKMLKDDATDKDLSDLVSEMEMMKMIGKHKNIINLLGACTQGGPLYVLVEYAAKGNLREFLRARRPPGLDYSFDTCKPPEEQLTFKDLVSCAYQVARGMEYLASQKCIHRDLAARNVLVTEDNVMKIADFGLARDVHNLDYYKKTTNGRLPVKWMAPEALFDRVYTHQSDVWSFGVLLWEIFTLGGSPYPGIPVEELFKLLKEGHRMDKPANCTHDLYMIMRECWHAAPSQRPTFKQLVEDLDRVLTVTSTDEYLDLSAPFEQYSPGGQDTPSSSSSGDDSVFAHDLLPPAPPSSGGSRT
Chain of EPHB2 (P29323 whole entry, looked up): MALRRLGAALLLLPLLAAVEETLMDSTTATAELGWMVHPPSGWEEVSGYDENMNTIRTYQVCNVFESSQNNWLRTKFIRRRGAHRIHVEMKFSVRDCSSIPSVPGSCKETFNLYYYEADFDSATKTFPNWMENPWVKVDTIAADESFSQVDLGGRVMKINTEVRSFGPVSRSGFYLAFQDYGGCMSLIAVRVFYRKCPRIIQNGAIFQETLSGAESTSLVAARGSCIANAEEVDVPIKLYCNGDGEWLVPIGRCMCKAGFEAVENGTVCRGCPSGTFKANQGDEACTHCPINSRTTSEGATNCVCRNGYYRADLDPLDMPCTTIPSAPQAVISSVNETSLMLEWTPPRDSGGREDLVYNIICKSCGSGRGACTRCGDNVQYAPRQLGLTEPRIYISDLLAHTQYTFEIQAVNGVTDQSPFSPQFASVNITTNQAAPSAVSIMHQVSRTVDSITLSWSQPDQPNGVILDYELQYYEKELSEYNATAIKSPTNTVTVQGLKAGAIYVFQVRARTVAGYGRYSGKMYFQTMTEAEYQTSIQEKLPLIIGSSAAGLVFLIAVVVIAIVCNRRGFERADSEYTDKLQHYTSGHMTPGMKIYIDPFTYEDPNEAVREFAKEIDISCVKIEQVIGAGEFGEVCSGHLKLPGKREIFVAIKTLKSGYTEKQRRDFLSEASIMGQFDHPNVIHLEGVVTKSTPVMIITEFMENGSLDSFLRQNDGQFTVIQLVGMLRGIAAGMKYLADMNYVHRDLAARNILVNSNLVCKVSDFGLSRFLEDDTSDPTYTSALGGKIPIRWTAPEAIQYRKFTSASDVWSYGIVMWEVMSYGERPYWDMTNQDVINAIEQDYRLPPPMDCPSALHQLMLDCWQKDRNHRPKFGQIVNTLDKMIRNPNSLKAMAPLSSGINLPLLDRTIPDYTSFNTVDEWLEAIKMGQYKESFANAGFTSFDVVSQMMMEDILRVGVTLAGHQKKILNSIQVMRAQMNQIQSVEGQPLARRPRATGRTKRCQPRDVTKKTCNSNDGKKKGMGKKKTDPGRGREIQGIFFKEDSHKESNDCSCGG
Chain of Hck (P08631 whole entry, looked up): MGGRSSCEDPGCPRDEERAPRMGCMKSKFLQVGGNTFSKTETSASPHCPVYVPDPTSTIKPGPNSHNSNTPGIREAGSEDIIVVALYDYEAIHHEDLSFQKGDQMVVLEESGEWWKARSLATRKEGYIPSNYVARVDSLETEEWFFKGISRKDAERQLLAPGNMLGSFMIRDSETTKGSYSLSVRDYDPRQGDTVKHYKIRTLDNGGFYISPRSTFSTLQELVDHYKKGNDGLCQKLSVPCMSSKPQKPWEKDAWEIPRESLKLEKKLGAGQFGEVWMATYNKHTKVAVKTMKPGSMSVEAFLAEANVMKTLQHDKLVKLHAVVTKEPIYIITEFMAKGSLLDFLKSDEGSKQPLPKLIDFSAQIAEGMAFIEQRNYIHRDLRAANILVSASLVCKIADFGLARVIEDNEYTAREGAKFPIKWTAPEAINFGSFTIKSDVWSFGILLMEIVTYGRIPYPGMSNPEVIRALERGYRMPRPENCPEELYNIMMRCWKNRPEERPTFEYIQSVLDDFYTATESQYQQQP
Chain of Jak2 (O60674 whole entry, looked up): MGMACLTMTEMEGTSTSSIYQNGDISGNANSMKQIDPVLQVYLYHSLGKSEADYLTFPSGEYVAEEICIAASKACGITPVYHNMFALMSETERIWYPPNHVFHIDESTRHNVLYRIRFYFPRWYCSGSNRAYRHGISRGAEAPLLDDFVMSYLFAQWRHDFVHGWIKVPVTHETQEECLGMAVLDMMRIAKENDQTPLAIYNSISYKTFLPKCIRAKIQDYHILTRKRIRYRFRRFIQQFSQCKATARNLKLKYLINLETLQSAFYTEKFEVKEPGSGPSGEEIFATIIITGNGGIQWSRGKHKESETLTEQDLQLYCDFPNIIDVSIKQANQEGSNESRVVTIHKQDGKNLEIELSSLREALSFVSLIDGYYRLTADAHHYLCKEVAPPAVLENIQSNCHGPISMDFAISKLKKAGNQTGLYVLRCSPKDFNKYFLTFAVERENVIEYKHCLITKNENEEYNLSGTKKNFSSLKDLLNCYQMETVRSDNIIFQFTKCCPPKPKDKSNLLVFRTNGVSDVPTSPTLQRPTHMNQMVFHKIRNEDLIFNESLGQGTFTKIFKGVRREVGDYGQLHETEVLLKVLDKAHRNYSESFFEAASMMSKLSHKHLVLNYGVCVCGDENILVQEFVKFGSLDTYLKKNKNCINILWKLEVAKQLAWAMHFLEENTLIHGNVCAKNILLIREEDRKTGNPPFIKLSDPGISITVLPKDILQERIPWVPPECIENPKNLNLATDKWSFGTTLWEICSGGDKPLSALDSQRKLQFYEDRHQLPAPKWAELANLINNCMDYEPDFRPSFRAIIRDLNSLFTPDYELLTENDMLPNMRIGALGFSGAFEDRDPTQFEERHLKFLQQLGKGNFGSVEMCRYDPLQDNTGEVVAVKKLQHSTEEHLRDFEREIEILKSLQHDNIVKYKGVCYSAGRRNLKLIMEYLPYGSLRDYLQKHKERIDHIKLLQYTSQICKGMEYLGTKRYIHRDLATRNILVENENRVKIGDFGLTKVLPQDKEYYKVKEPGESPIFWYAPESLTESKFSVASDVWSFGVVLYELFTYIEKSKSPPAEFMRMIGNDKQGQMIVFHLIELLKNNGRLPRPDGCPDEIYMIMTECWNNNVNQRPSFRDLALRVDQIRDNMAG
Chain of Fyn (P06241 whole entry, looked up): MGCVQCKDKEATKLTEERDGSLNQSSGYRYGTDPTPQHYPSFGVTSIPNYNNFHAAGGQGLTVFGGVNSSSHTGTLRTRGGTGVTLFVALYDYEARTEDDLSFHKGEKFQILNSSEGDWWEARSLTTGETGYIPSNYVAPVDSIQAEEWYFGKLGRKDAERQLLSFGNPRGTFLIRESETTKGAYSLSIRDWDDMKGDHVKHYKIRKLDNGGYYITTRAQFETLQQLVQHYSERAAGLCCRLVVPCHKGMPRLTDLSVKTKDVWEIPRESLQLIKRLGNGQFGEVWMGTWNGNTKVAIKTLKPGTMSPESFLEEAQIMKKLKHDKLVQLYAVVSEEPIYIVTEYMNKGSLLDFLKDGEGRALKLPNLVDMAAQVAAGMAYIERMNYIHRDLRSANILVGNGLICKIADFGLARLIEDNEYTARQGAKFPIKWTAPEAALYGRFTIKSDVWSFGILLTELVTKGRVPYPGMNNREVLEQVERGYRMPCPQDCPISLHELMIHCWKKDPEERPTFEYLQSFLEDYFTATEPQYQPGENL

Row | Sequence | phosphorylation enrichment (AncSZ) | phosphorylation enrichment (EPHB1) | phosphorylation enrichment (EPHB2) | phosphorylation enrichment (FGFR1) | phosphorylation enrichment (FGFR3) | phosphorylation enrichment (Fer (mouse)) | phosphorylation enrichment (Fes) | phosphorylation enrichment (Fyn) | phosphorylation enrichment (Hck) | phosphorylation enrichment (Jak2) | phosphorylation enrichment (MERTK) | phosphorylation enrichment (c-Abl (mouse)) | phosphorylation enrichment (c-Src) | SH2 binding enrichment (Grb2 SH2) | SH2 binding enrichment (SHP2-C SH2) | SH2 binding enrichment (c-Src SH2)
1 | SGRRRYTIAAL [TTR_Y125_P122R] | 0.602 | 0.615 | 0.581 | 0.547 | 0.598 | 0.6 | 0.622 | 0.61 | 0.517 | 0.51 | 0.601 | 0.512 | 0.736 | 0.58 | 0.373 | 0.468
2 | SHNKYYMLVAR [MFSD8_Y134] | 0.825 | 0.943 | 0.675 | 5.4 | 3.28 | 0.486 | 0.939 | 0.494 | 0.658 | 1.14 | 2.9 | 0.6 | 0.487 | 1.77 | 15.5 | 1.92
3 | SIDLGYHKDLQ [NF1_Y1169_G1166D] | 1.17 | 0.46 | 0.478 | 0.607 | 0.485 | 0.503 | 0.777 | 0.51 | 0.454 | 0.856 | 0.531 | 0.557 | 0.552 | 0.661 | 0.486 | 0.544
4 | SIKDKYVMALY [KCNH2_Y611_T613M] | 0.639 | 0.505 | 0.481 | 0.638 | 0.547 | 0.45 | 0.734 | 0.483 | 0.59 | 0.648 | 0.441 | 0.599 | 0.422 | 0.836 | 0.679 | 0.514
5 | SISFDYCRVPM [BST2_Y8_T4I_YF] | 1.65 | 2.13 | 1.36 | 1.43 | 1.39 | 0.533 | 1.15 | 0.463 | 0.546 | 1.43 | 0.547 | 0.785 | 0.528 | 0.726 | 0.65 | 0.39
6 | SKEPYYVHCIK [MYO1D_Y586_R588H] | 0.965 | 0.622 | 0.704 | 0.77 | 0.664 | 0.498 | 0.932 | 0.58 | 0.557 | 0.677 | 0.559 | 0.615 | 0.543 | 1.16 | 1.04 | 0.81
7 | SKGYAYVHFDS [PABPC5_Y149] | 1.22 | 0.575 | 0.561 | 0.632 | 0.749 | 0.584 | 1.25 | 0.449 | 0.53 | 1.05 | 0.37 | 0.953 | 0.479 | 0.991 | 29.3 | 11.1
8 | SLAARYFNWVS [FLT4_Y1230_YF] | 1.15 | 0.586 | 0.698 | 0.555 | 0.718 | 0.479 | 1.26 | 0.494 | 0.532 | 0.935 | 0.636 | 0.822 | 0.431 | 2.68 | 1.39 | 1.15
9 | SLALFYRNVFH [RBL1_Y792_K794N_YF] | 0.962 | 0.573 | 1.02 | 0.447 | 0.649 | 0.497 | 1.19 | 0.49 | 0.5 | 1.02 | 0.422 | 0.688 | 0.409 | 0.892 | 0.873 | 0.518
10 | SLDLSYFPTSS [EMD_Y181_YF] | 0.879 | 0.426 | 0.513 | 0.59 | 0.635 | 0.353 | 0.793 | 0.496 | 0.432 | 2.93 | 0.56 | 0.632 | 0.502 | 0.8 | 1.1 | 0.414
11 | SLDLSYFTTSS [EMD_Y181_P183T_YF] | 0.876 | 0.468 | 0.475 | 0.499 | 0.605 | 0.37 | 0.836 | 0.38 | 0.451 | 1.04 | 0.371 | 0.644 | 0.382 | 0.803 | 0.675 | 0.55
12 | SLGKGYSDGGC [MC4R_Y35] | 0.636 | 0.456 | 0.473 | 0.576 | 0.585 | 0.399 | 0.773 | 0.47 | 0.427 | 0.719 | 0.392 | 0.603 | 0.387 | 0.763 | 0.678 | 0.632
13 | SLMNQYVNKKF [RAB7A_Y28] | 0.474 | 0.291 | 0.373 | 0.381 | 0.396 | 0.398 | 0.579 | 0.383 | 0.427 | 0.44 | 0.315 | 0.447 | 0.342 | 0.877 | 0.697 | 0.442
14 | SNPAFYVLEGV [INPPL1_Y987_N982S_YF] | 0.818 | 0.469 | 0.559 | 0.509 | 0.63 | 0.427 | 1.06 | 0.648 | 0.441 | 0.765 | 0.517 | 0.646 | 0.732 | 0.919 | 0.752 | 0.714
15 | SNSATYSGSVA [PDLIM5_Y382] | 0.748 | 0.347 | 0.497 | 0.432 | 0.483 | 0.392 | 0.624 | 0.561 | 0.56 | 0.48 | 0.516 | 0.576 | 0.498 | 0.691 | 0.572 | 0.39
16 | SPFAVYLFFTF [RPGRIP1_Y826_R827L_YF] | 0.99 | 0.434 | 0.744 | 0.467 | 0.63 | 0.335 | 0.925 | 0.477 | 0.361 | 0.891 | 0.34 | 0.754 | 0.425 | 1.09 | 0.729 | 0.519
17 | SPLTDYSPQLQ [OTC_Y345_L341P] | 0.749 | 0.414 | 0.517 | 0.522 | 0.489 | 0.421 | 0.67 | 0.403 | 0.417 | 0.691 | 0.479 | 0.661 | 0.496 | 0.878 | 0.712 | 0.484

Row | Sequence | phosphorylation enrichment (AncSZ) | phosphorylation enrichment (EPHB1) | phosphorylation enrichment (EPHB2) | phosphorylation enrichment (FGFR1) | phosphorylation enrichment (FGFR3) | phosphorylation enrichment (Fer (mouse)) | phosphorylation enrichment (Fes) | phosphorylation enrichment (Fyn) | phosphorylation enrichment (Hck) | phosphorylation enrichment (Jak2) | phosphorylation enrichment (MERTK) | phosphorylation enrichment (c-Abl (mouse)) | phosphorylation enrichment (c-Src) | SH2 binding enrichment (Grb2 SH2) | SH2 binding enrichment (SHP2-C SH2) | SH2 binding enrichment (c-Src SH2)
18 | SPPILYSFFLN [FCRL6_Y239_D244N_YF] | 1.08 | 3.03 | 2.36 | 1.41 | 1.38 | 5.01 | 1.17 | 2.46 | 3.03 | 1.05 | 10.5 | 2.75 | 3.41 | 1.29 | 1.28 | 0.763
19 | SQPASYQRRLL [PPIG_Y320] | 0.394 | 0.313 | 0.337 | 0.472 | 0.396 | 0.286 | 0.451 | 0.53 | 0.253 | 0.35 | 0.316 | 0.301 | 0.365 | 0.729 | 0.54 | 0.428
20 | SRIWVYNHYRC [BRCA2_Y2621_W2626C] | 0.927 | 0.555 | 0.587 | 0.51 | 0.726 | 0.482 | 1.11 | 0.396 | 0.459 | 0.934 | 0.377 | 0.65 | 0.392 | 0.938 | 0.864 | 0.695
21 | SRIWVYNHYRW [BRCA2_Y2621] | 1.05 | 0.671 | 0.466 | 0.574 | 0.845 | 0.396 | 1.59 | 0.469 | 0.442 | 0.95 | 0.466 | 0.783 | 0.402 | 1.14 | 1.1 | 1.17
22 | SRPHLYGTPSR [ADGRE2_Y670] | 0.609 | 0.493 | 0.617 | 0.426 | 0.619 | 0.402 | 0.587 | 0.615 | 0.565 | 0.588 | 0.58 | 0.538 | 0.441 | 1.54 | 0.825 | 1.09
23 | SSENPYATIKD [MEGF10_Y1030] | 0.87 | 0.458 | 0.597 | 0.496 | 0.53 | 0.944 | 0.897 | 1.52 | 1.65 | 0.876 | 0.506 | 0.741 | 2.31 | 0.985 | 9.45 | 14
24 | SSMIDYNPLEK [MYOC_Y479] | 0.971 | 0.517 | 0.533 | 0.475 | 0.595 | 0.44 | 0.945 | 0.596 | 0.512 | 1.07 | 0.463 | 0.663 | 0.689 | 0.744 | 0.641 | 0.373
25 | SSMSDYNPLEK [MYOC_Y479_I477S] | 0.87 | 0.501 | 0.515 | 0.506 | 0.581 | 0.558 | 0.876 | 0.47 | 0.525 | 0.756 | 0.425 | 0.657 | 0.439 | 0.746 | 0.558 | 0.525
26 | SSNLFYRWLTA [CNGA3_Y169_YF] | 1.09 | 0.594 | 0.526 | 0.621 | 0.744 | 0.493 | 0.982 | 0.473 | 0.557 | 0.846 | 0.532 | 0.665 | 0.398 | 0.692 | 0.591 | 0.466
27 | STEAIYWRYSK [SH3PXD2B_Y42_R43W] | 1.33 | 1.44 | 1.39 | 1.54 | 1.53 | 0.502 | 1.28 | 4.84 | 3.66 | 1.26 | 1.34 | 8.71 | 3.47 | 0.752 | 0.551 | 0.355
28 | STFVPCEIKVQ [L1CAM_Y784_Y784C] | 1.3 | 0.685 | 0.727 | 0.579 | 1.05 | 0.669 | 1.61 | 0.49 | 0.589 | 1.39 | 0.386 | 1.04 | 0.444 | 0.819 | 0.578 | 0.497
29 | STILLYHIMAW [GPR143_Y157] | 1.59 | 4.83 | 2.88 | 2.8 | 2.88 | 1.02 | 1.64 | 0.766 | 1.44 | 1.89 | 4.05 | 1.23 | 1.01 | 0.876 | 0.899 | 0.634
30 | SVIVPYEPPEV [TP53_Y220_V217I] | 1.1 | 0.622 | 0.618 | 0.6 | 0.81 | 0.631 | 1.23 | 0.654 | 0.517 | 1.08 | 0.447 | 0.831 | 0.445 | 0.731 | 0.712 | 1.28
31 | SVLVPYEPPEV [TP53_Y220_V217L] | 1.36 | 0.651 | 0.757 | 0.505 | 0.899 | 0.63 | 1.33 | 0.555 | 0.651 | 1.32 | 0.463 | 0.874 | 0.541 | 0.892 | 0.859 | 1.14
32 | SVSNNYIQTLG [CTNND1_Y174] | 0.606 | 0.491 | 0.426 | 0.476 | 0.585 | 0.451 | 0.658 | 0.432 | 0.417 | 0.508 | 0.621 | 0.637 | 0.445 | 0.846 | 0.803 | 0.638
33 | SVTCTYSPALH [TP53_Y126_N131H] | 1.28 | 0.71 | 0.62 | 0.487 | 0.724 | 0.492 | 1.41 | 0.545 | 0.556 | 1.23 | 0.413 | 0.808 | 0.741 | 0.617 | 0.532 | 0.402
